Measurements as given in patent US20180030137A1 (ADURO BIOTECH HOLDINGS EUROPE B V, published 2018).
Several values for one entry are separate records, joined by “and”; a condition that tells them apart may be missing. Equal values may be shown once.

Legend:
[1] = molecular target: T1, Human PD-1 (Swiss-Prot entry Q15116), full length, on cells (human, UniProt Q15116 21-288); experiment: CELISA on CHO-K1.hPDCD1 cells; blocking of biotinylated hPD-L1 Fc
T1 construct: Full length open reading frame of hPD-1 stably expressed on CHO-K1 cells; also endogenous PD-1 on CD3/CD28-stimulated human CD3+ T cells and PD-1 on transfected Jurkat cells; also called hPD-1; hPDCD1
Description: (§1) To further characterize these mutant hPD-1 antibodies they were tested for binding to hPD-1 in CELISA format using CHO-K1 cells (American Type Culture Collection, Manassas, Va.), stably transfected with cDNA encoding the full length open reading frame of hPDCD1 (hPD-1), subcloned into the pCI-neo vector (Promega). Parental CHO-K1 or CHO-K1.hPDCD1 cells were seeded in culture medium (DMEM-F12 (Gibco) with 10% Fetal Bovine Serum (Hyclone) and Pen/Strep (Gibco)) in tissue culture plates and incubated for 48 hours at 37° C. Subsequently culture medium was removed and cells were incubated for 1 hour at 37° C. with the mutant hPD-1 antibodies (10 μg/ml (=66 nM) and dilutions thereof). Next, cells were washed with Phosphate-Buffered Saline/0.05% Tween (PBST) and incubated for 1 hour at 37° C. with Goat-anti-human IgG-HRP (Southern Biotech). Subsequently, cells were washed 3 times with PBST and anti-hPD1 immunoreactivity was visualized with 100 al TMB Stabilized Chromagen (Invitrogen). Reactions were stopped with 100 al 0.5 M H2SO4 and absorbances were read at 450 and 610 nm. […] Blockade of hPD-L1 binding by the mutant hPD-1 antibodies was tested in CELISA format. Parental CHO-K1 or CHO-K1.hPDCD1 cells were seeded in tissue culture plates and incubated for 72 hours at 37° C. in culture medium. Subsequently culture medium was removed and cells were incubated for 1 hour with the mutant hPD-1 antibodies (10 μg/ml (=66 nM) and dilutions thereof) at 37° C. […] Cells were then washed three times with PBST followed by addition of Streptavidin-HRP conjugate on the cells, which was incubated for 1 hour at 37° C. […] Reactions were stopped with 100 al 0.5 M H2SO4 and absorbances were read at 450 and 610 nm. Calculated IC50 values in Table 12 for the blockade of hPD-L1 represent the concentration at which half of the inhibition is observed.

[2] = molecular target: T1, Human PD-1 (Swiss-Prot entry Q15116), …; experiment: flow cytometry, Binding (%), on anti-CD3/anti-CD28 stimulated human CD3+ T cells, donor #2
Description: (§2) Cells were stored in liquid nitrogen and retrieved from the freezer on the day of the experiment. Since endogenous expression of hPD-1 on resting T cells is low, the thawed CD3+ T cells were stimulated with αCD3/αCD28 coated beads (Gibco) for 48 hours.

[3] = molecular target: T2, Macaca fascicularis PD-1 (Swiss-Prot entry B0LAJ3), full length, on cells (Macaca fascicularis, UniProt Q15116 25-288 (human entry)); experiment: flow cytometry, Binding (%), on anti-CD3/anti-CD28 stimulated cynomolgus PBMCs; animal #1 or #3, same marker in the legend
T2 construct: Full length open reading frame transiently expressed on CHO-K1 cells; also endogenous PD-1 on CD3/CD28-stimulated cynomolgus PBMCs; No signal peptide limits are stated for the cynomolgus entry; also called cyno PD-1; cynomolgus PD-1
T2 chain: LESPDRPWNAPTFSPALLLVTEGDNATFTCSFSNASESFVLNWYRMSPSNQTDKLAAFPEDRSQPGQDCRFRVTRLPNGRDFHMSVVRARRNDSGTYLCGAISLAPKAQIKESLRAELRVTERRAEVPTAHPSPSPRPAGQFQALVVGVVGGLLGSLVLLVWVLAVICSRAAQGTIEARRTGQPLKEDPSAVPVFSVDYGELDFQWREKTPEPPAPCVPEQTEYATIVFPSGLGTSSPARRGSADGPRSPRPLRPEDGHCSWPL
Description: To this end Macacaca fascicularis (cynomolgus) blood was diluted 1:1 with PBS and added to 50 ml tubes containing 13 ml Lymphoprep 95%/PBS 5%. Cells were centrifuged for 30′ at 450 g and 20° C. without brake. Next, plasma was removed by aspiration and PBMCs were recovered from the plasma/Ficoll interface. PBMCs were washed twice times in PBS. Cells were frozen in liquid nitrogen and retrieved from the freezer on the day of the experiment. Since endogenous expression of PD-1 on resting T cells is low thus the thawed PBMCs were stimulated with αCD3/αCD28 coated beads (Gibco) for 48 hours.

[4] = molecular target: T1, Human PD-1 (Swiss-Prot entry Q15116), …; experiment: flow cytometry on CD3/CD28-stimulated human CD3+ T cells, three donors; CD3/CD28 stimulated human T cells, three donors
Description: as §2

[5] = molecular target: T1, Human PD-1 (Swiss-Prot entry Q15116), …; experiment: cell-based or functional assay
[6] = molecular target: T1, Human PD-1 (Swiss-Prot entry Q15116), …; experiment: CELISA on CHO-K1.hPDCD1 cells
Description: (§3) To further characterize these mutant hPD-1 antibodies they were tested for binding to hPD-1 in CELISA format using CHO-K1 cells (American Type Culture Collection, Manassas, Va.), stably transfected with cDNA encoding the full length open reading frame of hPDCD1 (hPD-1), subcloned into the pCI-neo vector (Promega). Parental CHO-K1 or CHO-K1.hPDCD1 cells were seeded in culture medium (DMEM-F12 (Gibco) with 10% Fetal Bovine Serum (Hyclone) and Pen/Strep (Gibco)) in tissue culture plates and incubated for 48 hours at 37° C. Subsequently culture medium was removed and cells were incubated for 1 hour at 37° C. with the mutant hPD-1 antibodies (10 μg/ml (=66 nM) and dilutions thereof). Next, cells were washed with Phosphate-Buffered Saline/0.05% Tween (PBST) and incubated for 1 hour at 37° C. with Goat-anti-human IgG-HRP (Southern Biotech). Subsequently, cells were washed 3 times with PBST and anti-hPD1 immunoreactivity was visualized with 100 al TMB Stabilized Chromagen (Invitrogen). Reactions were stopped with 100 al 0.5 M H2SO4 and absorbances were read at 450 and 610 nm. […] Blockade of hPD-L1 binding by the mutant hPD-1 antibodies was tested in CELISA format. […] Reactions were stopped with 100 al 0.5 M H2SO4 and absorbances were read at 450 and 610 nm. Calculated IC50 values in Table 12 for the blockade of hPD-L1 represent the concentration at which half of the inhibition is observed.

[7] = molecular target: T1, Human PD-1 (Swiss-Prot entry Q15116), …; experiment: flow cytometry, Binding (%), on anti-CD3/anti-CD28 stimulated human CD3+ T cells; donor #1 or #3, same marker in the legend
Description: as §2

[8] = molecular target: T1, Human PD-1 (Swiss-Prot entry Q15116), …; experiment: CELISA on CHO-K1.hPDCD1 cells; blocking of biotinylated hPD-L1 Fc; remark: listed apart in the source
Description: as §3

[9] = molecular target: T1, Human PD-1 (Swiss-Prot entry Q15116), …; experiment: CELISA on CHO-K1.hPDCD1 cells; blocking of biotinylated hPD-L2 Fc
Description: Parental CHO-K1 or CHO-K1.hPDCD1 cells were seeded in tissue culture plates and incubated for 72 hours at 37° C. in culture medium. […] Cells were then washed three times with PBST followed by addition of Streptavidin-HRP conjugate on the cells, which was incubated for 1 hour at 37° C. […] Reactions were stopped with 100 al 0.5 M H₂SO₄ and absorbances were read at 450 and 610 nm. […] Calculated IC50 values represent the concentration at which half of the inhibition is observed.

[10] = molecular target: T1, Human PD-1 (Swiss-Prot entry Q15116), …; experiment: CELISA on CHO-K1.hPDCD1 cells; remark: listed apart in the source
Description: as §1

T1 sequence (Q15116 21-288, one chain of several): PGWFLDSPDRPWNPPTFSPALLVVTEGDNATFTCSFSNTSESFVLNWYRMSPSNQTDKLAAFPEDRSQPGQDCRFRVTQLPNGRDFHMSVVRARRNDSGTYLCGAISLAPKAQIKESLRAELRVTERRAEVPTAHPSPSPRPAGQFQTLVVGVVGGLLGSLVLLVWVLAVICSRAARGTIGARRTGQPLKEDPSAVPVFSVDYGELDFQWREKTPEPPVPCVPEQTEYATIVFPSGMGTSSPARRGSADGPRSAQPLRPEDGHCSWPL

- IC50 [1]: 1.3 nM
- EC50 (read off the curve) [2]: ~0.2 nM
- EC50 (read off the curve) [3]: ~1 nM and ~2 nM
- EC50 [4]: 0.27 nM
- IC50; NFAT-luciferase signal (RLU) of Jurkat cells expressing human PD-1, with CHO cells expressing hPD-L1 [5]: 4.39 nM
- EC50 [6]: 0.13 nM
- EC50 (read off the curve) [7]: ~0.2 nM and ~0.3 nM
- IC50 [8]: 0.7 nM
- IC50 [9]: 0.61 nM
- EC50 [10]: 0.3 nM
B1: hPD1.29H5L4 (antibody, V domains shown)
VH: EVQLVQSGAEVKKPGASVKVSCKASGYIFTTYYIHWVKQAPGKGLEWIGWIFPGDVSTQYNEKFQDKATITVDKSASTAYMQLSSLRSEDTAVYYCTREAYDYAVYWGQGTLVTVSS
VL: DIQMTQAPSSLSASVGDRVTITCKASQNVDTNVAWFQQKPGKAPKSLIFSASYRYSGVPSRFSGSGSGTDFTLTISSLQPEDFATYYCQQYNNYPFTFGGGTKLEIK
notes: Expressed as human IgG4, kappa with the stabilizing S241P (Kabat) hinge mutation in HEK293 cells; also called humanized PD-1 antibody hPD1.29H5L4
